Results from IntAct's records for PubMed 22064073.

B1: PAX-interacting protein 1 (Homo sapiens), Q6ZW49-1 (parent)
chain: MVFLQNHVRFFLESLPAFLRVLIQAGALCWSLPELSQGEVGKGACPAEVGKHRDHLPSSDPVLMQAEASVVMCWVSSEDRSALWALVTFYGGDCQLTLNKKCTHLIVPEPKGEKYECALKRASIKIVTPDWVLDCVSEKTKKDEAFYHPRLIIYEEEEEEEEEEEEVENEEQDSQNEGSTDEKSSPASSQEGSPSGDQQFSPKSNTEKSKGELMFDDSSDSSPEKQERNLNWTPAEVPQLAAAKRRLPQGKEPGLINLCANVPPVPGNILPPEVRGNLMAAGQNLQSSERSEMIATWSPAVRTLRNITNNADIQQMNRPSNVAHILQTLSAPTKNLEQQVNHSQQGHTNANAVLFSQVKVTPETHMLQQQQQAQQQQQQHPVLHLQPQQIMQLQQQQQQQISQQPYPQQPPHPFSQQQQQQQQAHPHQFSQQQLQFPQQQLHPPQQLHRPQQQLQPFQQQHALQQQFHQLQQHQLQQQQLAQLQQQHSLLQQQQQQQIQQQQLQRMHQQQQQQQMQSQTAPHLSQTSQALQHQVPPQQPPQQQQQQQPPPSPQQHQLFGHDPAVEIPEEGFLLGCVFAIADYPEQMSDKQLLATWKRIIQAHGGTVDPTFTSRCTHLLCESQVSSAYAQAIRERKRCVTAHWLNTVLKKKKMVPPHRALHFPVAFPPGGKPCSQHIISVTGFVDSDRDDLKLMAYLAGAKYTGYLCRSNTVLICKEPTGLKYEKAKEWRIPCVNAQWLGDILLGNFEALRQIQYSRYTAFSLQDPFAPTQHLVLNLLDAWRVPLKVSAELLMSIRLPPKLKQNEVANVQPSSKRARIEDVPPPTKKLTPELTPFVLFTGFEPVQVQQYIKKLYILGGEVAESAQKCTHLIASKVTRTVKFLTAISVVKHIVTPEWLEECFRCQKFIDEQNYILRDAEAEVLFSFSLEESLKRAHVSPLFKAKYFYITPGICPSLSTMKAIVECAGGKVLSKQPSFRKLMEHKQNSSLSEIILISCENDLHLCREYFARGIDVHNAEFVLTGVLTQTLDYESYKFN

Variants of: B1
Conditions: with h2ax_human H2AX

**Q.** T1020A was tested. Which “effect of a mutation on the interaction” value did it give?
**A.** increasing interaction

Variants of: B1
Conditions: with h2ax_human H2AX
Remark: another data set of the same source

**Q.** With R876D as the variant, how does the “effect of a mutation on the interaction” value read?
**A.** disrupting interaction

Variants of: B1
Conditions: with h2ax_human H2AX
Remark: another data set of the same source

**Q.** Which “effect of a mutation on the interaction” value does the source give for T838A here?
**A.** disrupting interaction

Variants of: B1
Conditions: with h2ax_human H2AX
Remark: another data set of the same source

**Q.** For E1016A, which “effect of a mutation on the interaction” value is on record?
**A.** decreasing interaction

Variants of: B1
Conditions: with h2ax_human H2AX
Remark: another data set of the same source

**Q.** How did the “effect of a mutation on the interaction” value turn out when K879M was run?
**A.** disrupting interaction
